Measured values taken from paper PMC4780704, “A Parallel G Quadruplex-Binding Protein Regulates the Boundaries of DNA Elimination Events of Tetrahymena thermophila”.

Legend:
His-Lia3 [1] = biological target: T1, His-Lia3 (Tetrahymena thermophila, UniProt A3F815 1-322); test: EMSA; 100 mM KCl; EMSA: 10 mM Tris pH 7.5, 1 mM EDTA, 0.1 mM DTT, 5% glycerol, 0.010 mg/ml BSA, 100 mM KCl (or 100 mM LiCl to limit G4), 4 nM probe, RT; settings: protein: recombinant; tags: N-terminal His; label: 32P (5' PNK); mixed G4 (100 mM KCl)
T1 sequence: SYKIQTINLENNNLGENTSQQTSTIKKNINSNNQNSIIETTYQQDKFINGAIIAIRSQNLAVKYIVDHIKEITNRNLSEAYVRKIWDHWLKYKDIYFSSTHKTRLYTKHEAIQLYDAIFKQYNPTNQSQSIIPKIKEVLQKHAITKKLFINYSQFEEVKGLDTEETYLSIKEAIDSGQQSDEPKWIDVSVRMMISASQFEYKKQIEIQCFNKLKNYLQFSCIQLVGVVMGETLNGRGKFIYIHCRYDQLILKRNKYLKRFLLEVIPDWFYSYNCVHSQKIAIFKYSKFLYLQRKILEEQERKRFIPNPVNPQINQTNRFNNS

MBP-Lia3 = biological target: T2, MBP-Lia3 (Tetrahymena thermophila, UniProt A3F815 1-322); test: competition; excess vs G4-M1 probe; 400 nM protein; EMSA: 10 mM Tris pH 7.5, 1 mM EDTA, 0.1 mM DTT, 5% glycerol, 0.010 mg/ml BSA, 100 mM KCl (or 100 mM LiCl to limit G4), 4 nM probe, RT; settings: protein: recombinant; tags: N-terminal MBP-TEV-His; linear, no G4
T2 sequence: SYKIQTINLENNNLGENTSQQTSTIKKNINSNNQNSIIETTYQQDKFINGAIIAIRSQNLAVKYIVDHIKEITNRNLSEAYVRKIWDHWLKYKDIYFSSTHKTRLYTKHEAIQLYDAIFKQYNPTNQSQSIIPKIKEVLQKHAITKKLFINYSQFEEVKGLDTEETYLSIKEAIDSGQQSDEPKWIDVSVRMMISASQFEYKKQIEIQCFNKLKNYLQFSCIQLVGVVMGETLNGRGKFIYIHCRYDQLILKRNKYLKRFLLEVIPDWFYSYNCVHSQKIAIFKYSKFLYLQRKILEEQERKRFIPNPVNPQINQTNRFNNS

His-Lia3 [2] = biological target: T1, His-Lia3; test: competition; 5X/20X vs G4-M1 probe; EMSA: 10 mM Tris pH 7.5, 1 mM EDTA, 0.1 mM DTT, 5% glycerol, 0.010 mg/ml BSA, 100 mM KCl (or 100 mM LiCl to limit G4), 4 nM probe, RT; settings: protein: recombinant; tags: N-terminal His; parallel intermolecular G4, 4 strands (100 mM KCl)

B1: G4 Tetrahymena telomere (structured_DNA)
DNA: TTGGGGTTGGGGTTGGGGTTGGGG
His-Lia3 [1]
  Kd: 11.5 µM

B2: M1-C3 (C3G2 mutant) (ssDNA)
DNA: TTTATTAATCAAAAACCCGGTAAATAATAA
MBP-Lia3
  binding result: no binding

B3: G4-M2 (structured_DNA)
DNA: TTCAAGACAAAAAAAGGGGGATGGGTTTCC
His-Lia3 [2]
  binding result: binds
